Consider 41 substances from patent US20130345115A1.

Experiment [1] concerns the target (Δ1-28) H4 nucleosome (mononucleosome with FLAG-HA-tagged tailless human H4 lacking the first 28 amino acids) (human; human (293T cells)) (UniProt P62805). In words: MudPIT, co-purification.
For experiment [2], the target named is Wild type H4 nucleosome (mononucleosome with FLAG-HA-tagged wild type human H4) (human; human (293T cells)) (UniProt P62805). Kind of experiment: MudPIT, co-purification.

In the case of “X-ray repair complementing defective repair in Chinese hamster cells 6 (from UniProt P12956 2-609)”, in experiment [1], the amino acid coverage came to 3.2% and the peptide count was determined as 1 peptides. In addition, in experiment [2], the amino acid coverage is 5.7% and the peptide count worked out at 2 peptides.
Regarding “thyroid hormone receptor-associated protein complex component (from UniProt Q9Y2W1 2-955)”, in experiment [2], the amino acid coverage is 3.4% and the peptide count amounted to 2 peptides.
In experiment [1], “chromatin assembly factor 1, subunit A (from UniProt Q13111 1-956)” gave an amino acid coverage of 4.9% and a peptide count of 3 peptides. In experiment [2], the amino acid coverage came out at 5.5% and the peptide count was 3 peptides.
For “TATA box binding protein-associated factor, 135 kDa (from UniProt O00268 1-1085)”, in experiment [2], the amino acid coverage was 6.6% and the peptide count came to 5 peptides.
In experiment [1], “chromobox homolog 3 (HP1 gamma homolog, Drosophila) (from UniProt Q13185 2-183)” showed an amino acid coverage of 14.7% and a peptide count of 2 peptides. Besides, in experiment [2], the amino acid coverage was 13.2% and the peptide count was 2 peptides.
For the substance “death-domain associated protein (from UniProt Q9UER7 1-740)”, in experiment [1], the amino acid coverage is 2.4% and the peptide count amounted to 1 peptides.
In experiment [1], “X-ray repair complementing defective repair in Chinese hamster cells 5 (from UniProt P13010 2-732)” showed an amino acid coverage of 5.3% and a peptide count of 2 peptides. In experiment [2], this substance had an amino acid coverage of 4.4% and a peptide count of 2 peptides.
“histone cluster 1, H1c (HIST1H1C) (from UniProt P16403 2-213)”: the results for the amino acid coverage in experiment [1] and in experiment [2] were 12.3% and 10.3%, respectively. Moreover, the peptide count in experiment [1] and in experiment [2] was 2 peptides each time.
On to “SWI/SNF related, matrix associated, actin dependent regulator of chromatin, subfamily a, member 1 (from UniProt P28370 1-1042)”, for which, in experiment [1], the amino acid coverage is 19.2% and the peptide count stood at 9 peptides. In experiment [2], this substance gave an amino acid coverage of 24.9% and a peptide count of 11 peptides.
In experiment [2], “SWI/SNF complex 170 KDa subunit (from UniProt Q8TAQ2 1-1214)” gave an amino acid coverage of 4.3% and a peptide count of 3 peptides.
As for “RuvB-like 2 (E. coli) (from UniProt Q9Y230 2-463)”, the amino acid coverage amounted to 16.3% in experiment [1] and 13.4% in experiment [2]. Besides, the peptide count was determined as 8 peptides in experiment [1] and 5 peptides in experiment [2].
In experiment [1], “anti-silencing function 1 homolog B (from UniProt Q9NVP2 1-202)” showed an amino acid coverage of 18.8% and a peptide count of 2 peptides.
In experiment [2], “transcription factor 20 (AR1) (from UniProt Q9UGU0 1-1960)” showed an amino acid coverage of 2.4% and a peptide count of 3 peptides.
For the substance “euchromatic histone-lysine N-methyltransferase 2 (G9a) (from UniProt Q96KQ7 2-1210) (enzyme)”, the peptide count in experiment [1] turned out to be 0 peptides. In addition, in experiment [2], the amino acid coverage came out at 4% and the peptide count worked out at 2 peptides.
nucleolin (from UniProt P19338 2-710): in experiment [1], the amino acid coverage was 16.3% and the peptide count stood at 8 peptides. In experiment [2], this substance gave an amino acid coverage of 12% and a peptide count of 6 peptides.
As for “mediator of DNA-damage checkpoint 1 (from UniProt Q14676 1-2089)”, in experiment [1], the amino acid coverage is 18.4% and the peptide count turned out to be 4 peptides.
As to “Snf2-related CREBBP activator protein (from UniProt Q6ZRS2 1-3230)”, in experiment [1], the amino acid coverage is 1.9% and the peptide count stood at 3 peptides.
The substance “EuHMT1 (from UniProt Q9H9B1 2-1298) (enzyme)” came in with a peptide count in experiment [1] of 0 peptides. Also, in experiment [2], the amino acid coverage was found to be 5.7% and the peptide count was 3 peptides.
As for Histone H3, the amino acid coverage came out at 89.6% in experiment [1] and 82.6% in experiment [2]. The peptide count stood at 7 peptides in experiment [1] and 6 peptides in experiment [2].
In the case of “topoisomerase (DNA) I (from UniProt P11387 2-765) (enzyme)”, the amino acid coverage amounted to 4.2% in experiment [1] and 7.4% in experiment [2]. The peptide count in experiment [1] stood at 3 peptides; in experiment [2], 5 peptides.
In the case of Histone H2A, the amino acid coverage in experiment [1] is 74.1%; in experiment [2] it was 63.1%. The figures for the peptide count in experiment [1] and in experiment [2] were 6 peptides and 5 peptides, respectively.
In experiment [1], “SWI/SNF related, matrix associated, actin dependent regulator of chromatin, subfamily a, member 5 (from UniProt O60264 2-1052)” gave an amino acid coverage of 28.3% and a peptide count of 13 peptides. In experiment [2], this substance had an amino acid coverage of 20% and a peptide count of 9 peptides.
The matching figures for “suppressor of Ty 16 homolog (S. cerevisiae) (from UniProt Q9Y5B9 2-1047)”: 21.6%, 12 peptides, 17.2% and 12 peptides.
The matching figures for “histone cluster 1, H1a (HIST1H1A) (from UniProt Q02539 2-215)”: 11.8%, 2 peptides, 11.2% and 2 peptides.
The matching figures for “histone H2AX (from UniProt P16104 2-143)”: 8.4%, 1 peptides, 13.7% and 2 peptides.
In the case of Histone H2B, in experiment [1], the amino acid coverage amounted to 59.4% and the peptide count came out at 5 peptides. In experiment [2], the amino acid coverage is 54.7% and the peptide count came to 5 peptides.
Regarding “chromobox homolog 1 (HP1 beta homolog Drosophila) (from UniProt P83916 1-185)”, the values for the amino acid coverage in experiment [1] and in experiment [2] were 22.8% and 17.3%, respectively. Further, the peptide count came out at 3 peptides in experiment [1] and 2 peptides in experiment [2].
The matching figures for “structure specific recognition protein 1 (from UniProt Q08945 2-709)”: 11.9%, 15.8%, 7 peptides and 9 peptides.
Regarding “histone deacetylase 1 (from UniProt Q13547 1-482) (enzyme)”, the peptide count in experiment [1] came out at 0 peptides. In addition, in experiment [2], the amino acid coverage turned out to be 12.9% and the peptide count came to 5 peptides.
In experiment [1], “histone cluster 1, H1b (HIST1H1B) (from UniProt P16401 2-226)” returned an amino acid coverage of 12.8% and a peptide count of 2 peptides. Also, in experiment [2], the amino acid coverage was 12.5% and the peptide count came to 2 peptides.
In experiment [1], “protein arginine methyltransferase 5 (from UniProt O14744 2-637) (enzyme)” came in with an amino acid coverage of 23.8% and a peptide count of 9 peptides. In experiment [2], the amino acid coverage worked out at 21.8% and the peptide count was found to be 9 peptides.
With “histone cluster 1, H1d (HIST1H1D) (from UniProt P16402 2-221)”, in experiment [1], the amino acid coverage was found to be 6.4% and the peptide count was determined as 1 peptides. In addition, in experiment [2], the amino acid coverage was 8.6% and the peptide count came out at 1 peptides.
On to “suppressor of zeste 12 homolog (Drosophila) (from UniProt Q15022 1-739)”, for which the values for the amino acid coverage in experiment [1] and in experiment [2] were 1.4% and 5.1%, respectively. The peptide count in experiment [1] was 1 peptides; in experiment [2] it was 3 peptides.
In the same order, the values of “chromodomain helicase DNA binding protein 4 (from UniProt Q14839 1-1912)” are 0.6%, 1.2%, 1 peptides and 2 peptides.
The matching figures for “RuvB-like 1 (E. coli) (from UniProt Q9Y265 1-456)”: 21.3%, 19.1%, 8 peptides and 7 peptides.
The matching figures for “methyl CpG binding protein 2 (Rett syndrome) (from UniProt P51608 1-486)”: 3.1%, 12.3%, 1 peptides and 5 peptides.
In experiment [1], “chromobox homolog 5 (HP1 alpha homolog, Drosophila) (from UniProt P45973 1-191)” came in with an amino acid coverage of 21.4% and a peptide count of 3 peptides. In experiment [2], the amino acid coverage worked out at 21.4% and the peptide count was 3 peptides.
In experiment [1], “RAD23 homolog B (S. cerevisiae) (from UniProt P54727 1-409)” returned an amino acid coverage of 8.9% and a peptide count of 1 peptides.
Consider “metal response element binding transcription factor 2 (from UniProt Q9Y483 1-593)”, for which, in experiment [2], the amino acid coverage amounted to 4.6% and the peptide count amounted to 2 peptides.
For the substance “WD repeat domain 77 (from UniProt Q9BQA1 1-342)”, in experiment [1], the amino acid coverage amounted to 11.4% and the peptide count amounted to 2 peptides.
In experiment [1], “ADP-ribosylation factor 1 (from UniProt P84077 2-181)” displayed an amino acid coverage of 8.8% and a peptide count of 1 peptides.
